Source: paper PMC3943285, “Activity of a Carboxyl-Terminal Truncated Form of Catechol 2,3-Dioxygenase from Planococcus sp. S5” (The Scientific World Journal, 2014)

Test system: Oc1ccccc1O
Assay: cells, lysate or membranes
Conditions: catechol 0-150 µM, 35 °C, 50 mM phosphate pH 7.5 (general assay), O2 co-substrate, crude extract
[1] = C-terminally truncated (stop at 289)

Row | Substance | Km [µM] | Vmax [µmol/min/mg] | Km [1] [µM] | Vmax [1] [µmol/min/mg]
1 | C23Owt (catechol 2,3-dioxygenase from Planococcus sp. S5) (Planococcus sp. S5) | 97.74 ± 10.91 | 0.115 |  | 
2 | C23Owt (catechol 2,3-dioxygenase from Planococcus sp. S5) (Planococcus sp. S5; C103R) |  |  | 66.17 ± 9.44 | 0.104
